Where a chain is given by its changes, count along the chain named.
T1: GDF15 (ligand used in the GFRAL/RET cell assays) (UniProt Q99988 197-308, limits assumed)
T1 sequence (looked up): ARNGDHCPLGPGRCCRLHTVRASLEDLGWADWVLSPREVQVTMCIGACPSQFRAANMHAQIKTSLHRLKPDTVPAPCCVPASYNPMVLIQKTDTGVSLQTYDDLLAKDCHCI

T2: Human GDF15 Fc (human, UniProt Q99988 195-308, limits assumed, biotinylated (EZ-Link Sulfo-NHS-Biotinylation Kit) in the SPR assay)
T2 construct: also called human GDF15-Fc fusion; biotinylated Human GDF15 Fc; not shown: Fc part
T2 sequence: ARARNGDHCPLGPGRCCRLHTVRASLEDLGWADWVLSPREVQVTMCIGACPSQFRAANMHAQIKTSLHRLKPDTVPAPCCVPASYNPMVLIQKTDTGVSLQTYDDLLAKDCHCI

T3: Cyno GDF15 Fc (cyno, UniProt G7PWZ3 193-308, limits assumed)
T3 construct: also called cyno GDF15-Fc fusion; not shown: Fc part
T3 sequence: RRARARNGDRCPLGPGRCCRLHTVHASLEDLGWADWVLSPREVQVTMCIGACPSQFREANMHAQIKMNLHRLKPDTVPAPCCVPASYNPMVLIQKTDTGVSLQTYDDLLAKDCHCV

T4: Mouse GDF15 Fc (mouse, UniProt Q9Z0J7 189-303, limits assumed)
T4 construct: also called mouse GDF15-Fc fusion; not shown: Fc part
T4 sequence (looked up): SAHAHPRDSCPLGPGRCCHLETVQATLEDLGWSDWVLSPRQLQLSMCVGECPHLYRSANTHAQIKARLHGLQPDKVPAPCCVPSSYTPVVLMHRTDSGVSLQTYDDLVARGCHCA

T5: GDNF (UniProt P39905 78-211)
T5 sequence (looked up): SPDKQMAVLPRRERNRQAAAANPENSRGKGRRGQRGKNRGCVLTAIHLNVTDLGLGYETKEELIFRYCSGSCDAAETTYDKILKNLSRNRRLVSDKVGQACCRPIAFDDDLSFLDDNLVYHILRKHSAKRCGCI

T6: GDF10 (UniProt P55107 369-478)
T6 sequence (looked up): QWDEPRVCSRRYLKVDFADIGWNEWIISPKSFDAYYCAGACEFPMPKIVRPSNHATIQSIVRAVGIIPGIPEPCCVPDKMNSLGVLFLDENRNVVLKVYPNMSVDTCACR

T7: Human Activin B (human, UniProt P09529 293-407)
T7 sequence (looked up): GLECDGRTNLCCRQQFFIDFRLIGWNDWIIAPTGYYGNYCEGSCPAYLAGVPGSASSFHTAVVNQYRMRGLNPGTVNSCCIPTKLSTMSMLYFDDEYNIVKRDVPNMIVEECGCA

T8: Human BMP9 (human, UniProt Q9UK05 320-429)
T8 sequence (looked up): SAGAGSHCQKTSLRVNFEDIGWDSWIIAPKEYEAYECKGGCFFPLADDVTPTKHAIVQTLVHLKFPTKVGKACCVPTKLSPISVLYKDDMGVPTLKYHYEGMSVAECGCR

T9: Human BMP10 (human, UniProt O95393 317-424)
T9 sequence (looked up): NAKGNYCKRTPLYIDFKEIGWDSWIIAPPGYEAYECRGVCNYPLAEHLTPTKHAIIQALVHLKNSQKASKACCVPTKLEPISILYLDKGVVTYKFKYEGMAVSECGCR

B1: GDF15 antibody agent Clone E, Fab (Fab, V domains shown)
VH: QVQLVQSGAEVKKPGASVKVSCKASGYTFTSYGINWVRQAPGQGLEWMGWITAYSGDTNYAQKLQGRVTMTTDTSTSTAYMELRSLRSDDTAVYYCARGPGQYADVDVWGQGTMVTVSS
VL: DIQMTQSPSSVSASVGDRVTITCRASQGISSWLAWYQQKPGKAPKLLIYAASSLQSGVPSRFSGSGSGTDFTLTISSLQPEDFATYYCQQANSFPITFGGGTKVEIK
notes: Fab; CH1 and CL of the Fab not specified; also called Fab of Clone E
B2: GDF15 antibody agent Clone O, Fab (Fab, V domains shown)
VH: QVQLVQSGAEVKKPGATVKVSCKASGYTFDSLGMSWVRQAPGQGLEWMGYISTYSGDTVYAQKLQGRVTMTTDTSTSTAYMELRSLRSDDTAVYYCARESGQQVSALDPWGQGTLVTVSS
VL: B1 VL with S31R, A91G, N92A, I96L
notes: Fab; CH1 and CL of the Fab not specified; also called Fab of Clone O
B3: GDF15 antibody agent Clone K, Fab (Fab, V domains shown)
VH: QVQLVQSGAEVKKPGASVKVSCKASGYTFTNEGISWVRQAPGQGLEWMGWISAYTADTFYAQKLQGRVTMTTDTSTSTAYMELRSLRSDDTAVYYCARTRHDTSGLRFDYWGQGTLVTVSS
VL: B1 VL with S30D, A91V, N92H
notes: Fab; CH1 and CL of the Fab not specified; also called Fab of Clone K
B4: GDF15 antibody agent Clone T, Fab (Fab, V domains shown)
VH: B1 VH
VL: B1 VL with N92S, S93Q
notes: Fab; CH1 and CL of the Fab not specified; also called Fab of Clone T
B5: GDF15 antibody agent Clone I, Fab (Fab, V domains shown)
VH: B1 VH with S31D, Y32E, N59V
VL: B1 VL
notes: Fab; CH1 and CL of the Fab not specified; also called Fab of Clone I
B6: GDF15 antibody agent Clone S, Fab (Fab, V domains shown)
VH: B1 VH
VL: B1 VL with M4L, S31P
notes: Fab; CH1 and CL of the Fab not specified; also called Fab of Clone S
B7: GDF15 antibody agent Clone L, Fab (Fab, V domains shown)
VH: B3 VH with T30A, N31S, E32Y, G33D, S35I, Y54L, T55S, A56G, F59V, L106I
VL: B1 VL with S30D, A91V, N92H
notes: Fab; CH1 and CL of the Fab not specified; also called Fab of Clone L
B8: GDF15 antibody agent Clone B, IgG (antibody, V domains shown)
VH: QVQLQESGPGLVKPSQTLSLTCTVSGGSISSGGIYWTWIRQHPGKGLEWIGAIAYSGSTYYNPSLKSRVTISVDTSKNQFSLKLSSVTAADTAVYYCARGIEYQHFDYWGQGTLVTVSS
VL: not shown
B9: GDF15 antibody agent Clone Q, IgG (antibody, V domains shown)
VH: B8 VH
VL: not shown
B10: GDF15 antibody agent Clone R, IgG (antibody, V domains shown)
VH: B8 VH with K66E
VL: not shown
B11: GDF15 antibody agent Clone M, Fab (Fab, V domains shown)
VH: QVQLVQSGAEVKKPGASVKVSCKASGYTFDSYGINWVRQAPGQGLEWMGWISAYSGDTAYAQELQGRVTMTTDTSTSTAYMELRSLRSDDTAVYYCVRDTQYGGSPYWGQGTLVTVSS
VL: EIVMTQSPATLSVSPGERATLSCRASQSVSSNLAWYQQKPGQAPRLLIYGASTRATGIPARFSGSGSGTEFTLTISSLQSEDFAVYYCQQYNNWPITFGGGTKVEIK
notes: Fab; CH1 and CL of the Fab not specified; also called Fab of Clone M
B12: GDF15 antibody agent Clone H, Fab (Fab, V domains shown)
VH: QVQLVQSGAEVKKPGSSVKVSCKASGGTFSSYYISWVRQAPGQGLEWMGGIAPISGTASYAQKFQGRVTITADESTSTAYMELSSLRSEDTAVYYCARGLAYDGYFDLWGRGTLVTVSS
VL: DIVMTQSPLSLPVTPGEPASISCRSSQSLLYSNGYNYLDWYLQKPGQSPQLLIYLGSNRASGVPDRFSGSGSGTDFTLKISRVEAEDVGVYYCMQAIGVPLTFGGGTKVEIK
notes: Fab; CH1 and CL of the Fab not specified; also called Fab of Clone H

Legend:
[1] = biological target: T1, GDF15 (ligand used in the GFRAL/RET …); test: cell-based or functional assay
Human GDF15 Fc [2] = biological target: T2, Human GDF15 Fc; test: BLI Octet; antigen on sensor, 100 nM Fab (monovalent)
Cyno GDF15 Fc = biological target: T3, Cyno GDF15 Fc; test: as above
Mouse GDF15 Fc = biological target: T4, Mouse GDF15 Fc; test: as above
Human GDF15 Fc [3] = biological target: T2, Human GDF15 Fc; test: SPR Biacore 8K; biotinylated antigen captured, Fab analyte
Protocol: Kinetic analysis was conducted at 25° C. in HBS-EP+running buffer (10 mM HEPES pH 7.4, 150 mM NaCl, 3 mM EDTA, 0.05% Surfactant P20) using a Biacore 8K optical biosensor (Cytiva, Marlborough, MA). The sample compartment was maintained at 10° C. for the duration of the experiment. The Biacore 8K can analyze up to 8 separate interactions in a single cycle.
Each experiment cycle began with an injection (300 s at 2 μL/min) overflow cells 1 and 2 of a 1:100 solution of biotin CAPture reagent (Cytiva) in running buffer. This was followed by an injection (45 s at 10.0 μL/min) of biotinylated human GDF15 (5 nM) overflow cell 2. […] The dissociation of the antibodies were monitored for 3420 s. Finally, an injection (120 s at 10 μL/min) of regeneration solution (6 M Guanidine-HCl in 0.25 M NaOH) overflow cells 1 and 2 prepared the sensor surface for another cycle. Several blank buffer samples were injected (300 s at 30 μL/min) overflow cells 1 and 2 throughout the duration of the experiment and used for reference surface subtraction—each were monitored for the same amount of dissociation time (3420 s) and regenerated under the same conditions as those for the Fab sample injections.

GDNF = biological target: T5, GDNF; test: BLI Octet; IgG on sensor
GDF8 = GDF8 (UniProt O14793 267-375); test: BLI Octet; IgG on sensor
GDF10 = biological target: T6, GDF10; test: BLI Octet; IgG on sensor
GDF11 = biological target: T10, GDF11 (UniProt O95390 299-407); test: BLI Octet; IgG on sensor
T10 construct: Also used as ligand in the Activin 2B receptor/SMAD reporter assay
T10 sequence (O95390 299-407 limits assumed): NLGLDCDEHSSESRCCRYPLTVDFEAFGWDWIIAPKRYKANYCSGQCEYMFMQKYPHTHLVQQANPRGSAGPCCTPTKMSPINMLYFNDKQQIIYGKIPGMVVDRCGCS

Human GDF15 Fc [4] = biological target: T2, Human GDF15 Fc; test: BLI Octet; IgG on sensor, 100 nM antigen (avid)
Protocol: Briefly, ForteBio affinity measurements were performed by loading IgGs on-line onto AHC sensors. Sensors were equilibrated off-line in assay buffer for 30 min and then monitored on-line for 60 seconds for baseline establishment. Sensors with loaded IgGs were exposed to 100 nM antigen for 3 minutes, and afterwards were transferred to assay buffer for 3 min for off-rate measurement. All kinetics were analyzed using the 1:1 binding model.

Human Activin B = biological target: T7, Human Activin B; test: BLI Octet; IgG on sensor, 100 nM antigen (avid)
Human BMP9 = biological target: T8, Human BMP9; test: BLI Octet; IgG on sensor, 100 nM antigen (avid)
Human BMP10 = biological target: T9, Human BMP10; test: BLI Octet; IgG on sensor

Row | Binder | GDF15 GFRAL RET pERK Fab IC50 pM [1] | Kd (Human GDF15 Fc [2]) [nM] | Kd (Cyno GDF15 Fc) [nM] | Kd (Mouse GDF15 Fc) [nM] | Kd (Human GDF15 Fc [3]) [nM] | koff (Human GDF15 Fc [3]) [s⁻¹] | kon (Human GDF15 Fc [3]) [M⁻¹ s⁻¹] | GDF15-GFRAL RET pERK IC50 (pM) [1] [pM] | GDF15-GFRAL-RET Luciferase IC50 (pM) [1] [pM] | binding result (GDNF) | binding result (GDF8) | binding result (GDF10) | binding result (GDF11) | Kd (Human GDF15 Fc [4]) [nM] | Kd (Human Activin B) [nM] | binding result (Human BMP9) | binding result (Human BMP10)
1 | B1 | 46.7 pM | 0.921 | 0.413 | 3.08 | 0.0331 | 8.71e-05 | 2.63e+06 | – | – | – | – | – | – | – | – | – | –
2 | B2 | – | 0.016 | 0.077 | 1.6 | 0.0341 | 7.11e-05 | 2.08e+06 | – | – | – | – | – | – | – | – | – | –
3 | B3 | 169 pM | 2.11 | 2.4 | 333 | 0.23 | 0.00112 | 4.87e+06 | – | – | – | – | – | – | – | – | – | –
4 | B4 | – | 0.613 | 0.369 | 1.92 | 0.0411 | 4.52e-05 | 1.1e+06 | – | – | – | – | – | – | – | – | – | –
5 | B5 | 111 pM | 1.25 | 1.38 | 1.45 | 0.0672 | 0.000259 | 3.85e+06 | – | – | – | – | – | – | – | – | – | –
6 | B6 | – | 0.48 | 0.252 | 1.36 | 0.0369 | 4.93e-05 | 1.34e+06 | – | – | – | – | – | – | – | – | – | –
7 | B7 | 2.1 µM | 1.58 | 1.56 | 229 | 0.144 | 0.000576 | 3.99e+06 | – | – | – | – | – | – | – | – | – | –
8 | B8 | – | – | – | – | – | – | – | 104 | 66.2 | no binding (tested: 100 nM) | no binding (tested: 100 nM) | no binding (tested: 100 nM) | no binding (tested: 100 nM) | 0.26 | 145 | binds | –
9 | B9 | – | – | – | – | – | – | – | – | – | no binding (tested: 100 nM) | no binding (tested: 100 nM) | no binding (tested: 100 nM) | no binding (tested: 100 nM) | – | 172 | binds | no binding (tested: 100 nM)
10 | B10 | – | – | – | – | – | – | – | – | – | no binding (tested: 100 nM) | no binding (tested: 100 nM) | no binding (tested: 100 nM) | no binding (tested: 100 nM) | – | 188 | binds | –
11 | B11 | 1370 pM | 3.88 | 1.91 | 31.4 | 0.599 | 0.00191 | 3.2e+06 | – | – | – | – | – | – | – | – | – | –
12 | B12 | 24.6 pM | 1.24 | 1.42 | 50.9 | 0.117 | 0.000735 | 6.29e+06 | – | – | – | – | – | – | – | – | – | –

Reference: patent publication US20250382359A1 (BYOMASS, published 2025)
